The results in this text go back to patent US20020102534A1 (INSTITUT PASTEUR AND INSTITUT NATIONAL DE LA SANTE ET DE LA …, published 2002).

This data set concerns the molecule itself. In words: yeast two-hybrid bait-prey matrix (LacZ and HIS3 reporters).

B1: HCV core protein, full-length (capsid) (other)
chain: MSTNPKPQRKTKRNTNRRPQDVKFPGGGQIVGGVYLLPRRGPRLGVRATRKTSERSQPRGRRQPIPKARRPEGRTWAQPGYPWPLYGNEGCGWAGWLLSPRGSRPSWGPTDPRRRSRNLGKVIDTLTCGFADLMGYIPLVGAPLGGAARALAHGVRVLEDGVNYATGNLPGCSFSIFLLALLSCLTVPASA
notes: mature; also called capsid protein; p22
For B1, the binding result is on record as “no binding”.

B2: truncated HCV capsid protein C-delta-115 (other)
chain: MSTNPKPQRKTKRNTNRRPQDVKFPGGGQIVGGVYLLPRRGPRLGVRATRKTSERSQPRGRRQPIPKARRPEGRTWAQPGYPWPLYGNEGCGWAGWLLSPRGSRPSWGPTDPRRR
notes: also called CD115; CoreD115
For the protein B2, the binding result is listed as “binds”.
